The nature of this data set: total protein half-life in vivo (active degradation + dilution); higher = more stable protein.
The mark [1] stands for this setting: E. coli NCM3722 delta-clpP delta-lon delta-hslV, growth: N-lim chemostat, doubling time 6 h.
Setting [2] is: E. coli NCM3722 delta-clpP, growth: N-lim chemostat, doubling time 6 h.
The mark [3] stands for this setting: E. coli NCM3722 delta-hslV, growth: N-lim chemostat, doubling time 6 h.
Setting [4] is: E. coli NCM3722 delta-lon, growth: N-lim chemostat, doubling time 6 h.
[5] abbreviates: E. coli NCM3722 delta-smpB, growth: N-lim chemostat, doubling time 6 h.
Where [6] appears, read: wild type E. coli NCM3722, growth: C-lim chemostat, doubling time 3 h.
Where [7] appears, read: wild type E. coli NCM3722, growth: C-lim chemostat, doubling time 6 h.
[8] abbreviates: wild type E. coli NCM3722, growth: N-lim chemostat, doubling time 6 h.
The mark [9] stands for this setting: wild type E. coli NCM3722, growth: N-lim chemostat, doubling time 12 h.
Where [10] appears, read: wild type E. coli NCM3722, growth: P-lim chemostat, doubling time 6 h.
Where [11] appears, read: wild type E. coli NCM3722, growth: P-lim chemostat, doubling time 12 h.
Setting [12] is: wild type E. coli NCM3722, growth: C-lim chemostat, doubling time 12 h.

± gives the standard deviation of the averaged measurements.

Experimental findings from the supplement of paper PMC11246515 are described below.

On to “MLDNVLRIATRQSPLALWQAHYVKDKLMASHPGLVVELVPMVTRGDVILDTPLAKVGGKGLFVKELEVALLENRADIAVHSMKDVPVEFPQGLGLVTICEREDPRDAFVSNNYDSLDALPAGSIVGTSSLRRQCQLAERRPDLIIRSLRGNVGTRLSKLDNGEYDAIILAVAGLKRLGLESRIRAALPPEISLPAVGQGAVGIECRLDDSRTRELLAALNHHETALRVTAERAMNTRLEGGCQVPIGSYAELIDGEIWLRALVGAPDGSQIIRGERRGAPQDAEQMGISLAEELLNNGAREILAEVYNGDAPA”, for which the “total protein half-life in vivo” value stood at 3.85 ± 1.1 h under setting [1]; 4.24 ± 0.11 h under setting [2]; 4.0338 ± 0.0026 h under setting [3]; 4.87 ± 0.84 h under setting [4]; 4.04 ± 0.045 h under setting [5]; 2.81 ± 0.084 h under setting [6]. For the same sequence, the “total protein half-life in vivo” value reads like this: under setting [7], 5.48 ± 0.92 h; under setting [8], 4.12 ± 0.23 h; under setting [9], 7.009 ± 0.051 h; under setting [10], 5.475 ± 0.013 h; under setting [11], 11.4 ± 0.85 h.

With “MRLRKYNKSLGWLSLFAGTVLLSGCNSALLDPKGQIGLEQRSLILTAFGLMLIVVIPAILMAVGFAWKYRASNKDAKYSPNWSHSNKVEAVVWTVPILIIIFLAVLTWKTTHALEPSKPLAHDEKPITIEVVSMDWKWFFIYPEQGIATVNEIAFPANTPVYFKVTSNSVMNSFFIPRLGSQIYAMAGMQTRLHLIANEPGTYDGISASYSGPGFSGMKFKAIATPDRAAFDQWVAKAKQSPNTMSDMAAFEKLAAPSEYNQVEYFSNVKPDLFADVINKFMAHGKSMDMTQPEGEHSAHEGMEGMDMSHAESAH [P0ABJ1]”, the “total protein half-life in vivo” value was determined as 5.81 ± 1.2 h under setting [1]; 6.43 ± 0.55 h under setting [3]; 6.06 ± 0.16 h under setting [4]; 5.63 ± 0.44 h under setting [5]; 7.01 ± 0.81 h under setting [7]; 6.11 ± 0.29 h under setting [8]. The “total protein half-life in vivo” value was determined as 5.85 ± 0.097 h under setting [10] and 11.98 ± 0.095 h under setting [11].

For “MQDRNFDDIAEKFSRNIYGTTKGQLRQAILWQDLDRVLAEMGPQKLRVLDAGGGEGQTAIKMAERGHQVILCDLSAQMIDRAKQAAEAKGVSDNMQFIHCAAQDVASHLETPVDLILFHAVLEWVADPRSVLQTLWSVLRPGGVLSLMFYNAHGLLMHNMVAGNFDYVQAGMPKKKKRTLSPDYPRDPAQVYLWLEEAGWQIMGKTGVRVFHDYLREKHQQRDCYEALLELETRYCRQEPYITLGRYIHVTARKPQSKDKV”, the “total protein half-life in vivo” value was 4.99 ± 0.24 h under setting [1]; 4.498 ± 0.018 h under setting [2]; 3.95 ± 0.13 h under setting [3]; 4.57 ± 0.49 h under setting [4]; 4.304 ± 0.012 h under setting [5]; 2.96 ± 0.23 h under setting [6]. For the same sequence, the “total protein half-life in vivo” value runs as follows: under setting [7], 5.46 ± 0.57 h; under setting [12], 10.2 ± 0.95 h; under setting [8], 4.21 ± 0.36 h; under setting [9], 7.11 ± 0.55 h; under setting [10], 5.32 ± 0.21 h; under setting [11], 11 ± 0.42 h.

On to “MLPSQSPAIFTVSRLNQTVRLLLEHEMGQVWISGEISNFTQPASGHWYFTLKDDTAQVRCAMFRNSNRRVTFRPQHGQQVLVRANITLYEPRGDYQIIVESMQPAGEGLLQQKYEQLKAKLQAEGLFDQQYKKPLPSPAHCVGVITSKTGAALHDILHVLKRRDPSLPVIIYPAAVQGDDAPGQIVRAIELANQRNECDVLIVGRGGGSLEDLWSFNDERVARAIFTSRIPVVSAVGHETDVTIADFVADLRAPTPSAAAEVVSRNQQELLRQVQSTRQRLEMAMDYYLANRTRRFTQIHHRLQQQHPQLRLARQQTMLERLQKRMSFALENQLKRTGQQQQRLTQRLNQQNPQPKIHRAQTRIQQLEYRLAETLRAQLSATRERFGNAVTHLEAVSPLSTLARGYSVTTATDGNVLKKVKQVKAGEMLTTRLEDGWIESEVKNIQPVKKSRKKVH”, for which the “total protein half-life in vivo” value turned out to be 6.078 ± 0.013 h under setting [1]; 5.772 ± 0.023 h under setting [2]; 6.48 ± 0.87 h under setting [3]; 5.98 ± 0.4 h under setting [4]; 5.71 ± 0.13 h under setting [5]; 3.32 ± 0.21 h under setting [6]. Also, the “total protein half-life in vivo” value by setting is: under setting [7], 6.11 ± 0.37 h; under setting [12], 11.39 ± 0.059 h; under setting [8], 5.89 ± 0.5 h; under setting [9], 12.33 ± 0.035 h; under setting [10], 6.05 ± 0.67 h; under setting [11], 13.1 ± 2.8 h.

For the sequence “MRRFFWLVAAALLLAGCAGEKGIVEKEGYQLDTRRQAQAAYPRIKVLVIHYTADDFDSSLATLTDKQVSSHYLVPAVPPRYNGKPRIWQLVPEQELAWHAGISAWRGATRLNDTSIGIELENRGWQKSAGVKYFAPFEPAQIQALIPLAKDIIARYHIKPENVVAHADIAPQRKDDPGPLFPWQQLAQQGIGAWPDAQRVNFYLAGRAPHTPVDTASLLELLARYGYDVKPDMTPREQRRVIMAFQMHFRPTLYNGEADAETQAIAEALLEKYGQD”, the “total protein half-life in vivo” value came to 6.4 ± 0.46 h under setting [1]; 6.3559 ± 0.0044 h under setting [2]; 6.75 ± 0.56 h under setting [3]; 7.41 ± 0.34 h under setting [4]; 5.75 ± 0.39 h under setting [5]; 3.0599 ± 3.5e-05 h under setting [6]. Also, the “total protein half-life in vivo” value by setting is: under setting [12], 11.2 ± 0.38 h; under setting [9], 12.4 ± 0.43 h; under setting [10], 5.63 ± 1.1 h; under setting [11], 13.9 ± 1.3 h.

As for “MSLFHLIAPSGYCIKQHAALRGIQRLTDAGHQVNNVEVIARRCERFAGTETERLEDLNSLARLTTPNTIVLAVRGGYGASRLLADIDWQALVARQQHDPLLICGHSDFTAIQCGLLAHGNVITFSGPMLVANFGADELNAFTEHHFWLALRNETFTIEWQGEGPTCRAEGTLWGGNLAMLISLIGTPWMPKIENGILVLEDINEHPFRVERMLLQLYHAGILPRQKAIILGSFSGSTPNDYDAGYNLESVYAFLRSRLSIPLITGLDFGHEQRTVTLPLGAHAILNNTREGTQLTISGHPVLKM”, the “total protein half-life in vivo” value under setting [1] came to 4.96 ± 0.9 h; the “total protein half-life in vivo” value under setting [2] came out at 3.76 ± 0.25 h; the “total protein half-life in vivo” value under setting [3] was 4.05 ± 0.72 h; the “total protein half-life in vivo” value under setting [4] turned out to be 4.07 ± 0.22 h; the “total protein half-life in vivo” value under setting [5] amounted to 3.65 ± 0.53 h; the “total protein half-life in vivo” value under setting [6] came out at 3.13 ± 0.084 h. Further, the “total protein half-life in vivo” value by setting is: under setting [7], 5 ± 0.86 h; under setting [12], 9.85 ± 0.41 h; under setting [8], 3.693 ± 0.016 h; under setting [9], 6.99 ± 0.87 h; under setting [10], 6.058 ± 0.043 h; under setting [11], 10.8 ± 0.56 h.
